T1: soluble E-selectin (control protein) (UniProt P16581 22-556, limits assumed)
T1 sequence (looked up): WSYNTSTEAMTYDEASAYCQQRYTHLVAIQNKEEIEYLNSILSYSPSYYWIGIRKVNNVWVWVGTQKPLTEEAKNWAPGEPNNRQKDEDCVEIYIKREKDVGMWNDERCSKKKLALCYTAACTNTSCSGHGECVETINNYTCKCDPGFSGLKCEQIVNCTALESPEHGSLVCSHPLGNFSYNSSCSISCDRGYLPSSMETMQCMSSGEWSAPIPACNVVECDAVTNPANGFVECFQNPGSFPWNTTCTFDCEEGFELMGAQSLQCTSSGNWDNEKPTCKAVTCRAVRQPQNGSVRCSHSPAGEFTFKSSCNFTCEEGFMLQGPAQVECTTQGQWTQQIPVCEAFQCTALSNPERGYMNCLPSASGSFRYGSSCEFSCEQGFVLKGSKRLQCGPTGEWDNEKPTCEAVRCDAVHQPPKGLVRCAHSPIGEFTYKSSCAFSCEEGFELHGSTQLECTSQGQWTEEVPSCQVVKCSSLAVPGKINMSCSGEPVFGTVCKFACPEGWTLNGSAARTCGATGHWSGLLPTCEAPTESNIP

T2: soluble P-selectin (UniProt P16109 42-771, limits assumed)
T2 sequence (looked up): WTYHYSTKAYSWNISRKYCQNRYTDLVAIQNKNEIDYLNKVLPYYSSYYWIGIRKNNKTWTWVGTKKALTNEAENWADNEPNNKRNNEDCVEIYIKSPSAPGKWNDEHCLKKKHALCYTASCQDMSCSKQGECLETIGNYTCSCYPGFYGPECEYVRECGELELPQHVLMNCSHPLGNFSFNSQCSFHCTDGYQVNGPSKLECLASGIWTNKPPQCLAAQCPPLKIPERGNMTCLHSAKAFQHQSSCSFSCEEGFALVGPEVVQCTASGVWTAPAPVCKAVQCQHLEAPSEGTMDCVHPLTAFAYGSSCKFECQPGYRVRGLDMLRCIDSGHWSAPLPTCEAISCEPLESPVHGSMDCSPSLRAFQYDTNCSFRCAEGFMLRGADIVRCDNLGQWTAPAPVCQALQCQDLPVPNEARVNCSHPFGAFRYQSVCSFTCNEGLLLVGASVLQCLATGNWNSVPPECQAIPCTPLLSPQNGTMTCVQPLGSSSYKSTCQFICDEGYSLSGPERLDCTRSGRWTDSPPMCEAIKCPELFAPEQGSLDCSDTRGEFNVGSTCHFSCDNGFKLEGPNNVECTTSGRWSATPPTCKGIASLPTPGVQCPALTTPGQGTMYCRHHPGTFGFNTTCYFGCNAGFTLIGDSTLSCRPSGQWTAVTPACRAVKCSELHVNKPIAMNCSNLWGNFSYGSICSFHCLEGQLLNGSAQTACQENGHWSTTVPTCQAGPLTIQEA


Columns and labels:
[1] = molecular target: T1, soluble E-selectin (control protein); assay: SPR (Biacore 3000), soluble E-selectin coupled to CM-5 chip, antibody injected
Procedure: (§1) All experiments were performed on a Biacore 3000, at 25° C., using 20 mM MOPS, pH 7.5, 150 mM NaCl, 1.5 mM CaCl₂ and 0.005% Tween-20 as running buffer. Low densities of soluble P-selectin or soluble E-selectin (control protein) were covalently coupled on two different surfaces of a CM-5 chip according to the manufacturer's instructions. The coating density was selected with the aim of achieving a maximum binding response of 100-200 RUs.
(§2) Solutions containing G1aggr and the G1 mouse parental monoclonal antibody were diluted and injected onto the CM-5 chip at a flow rate of 30 μl/min for 4 minutes, followed by 3 min to allow for dissociation, at which time the bound antibody was eluted with a 10 μl injection of 10 mM Acetate pH 4.5, 100 mM NaCl at a flow rate of 10 μl/min. A series of concentrations of both antibodies were injected over the soluble P-selectin and the soluble E-selectin surfaces until saturating binding was observed.
There was no binding observed for either antibody to E-selectin.

soluble P-selectin = molecular target: T2, soluble P-selectin; assay: SPR (Biacore 3000, 25 C), soluble P-selectin coupled to CM-5 chip, antibody as analyte, bivalent analyte model
Procedure: as §1, §2
The data were analyzed using the Biaevaluation software v 4.1. Sensorgrams from the different cycles were overlaid and the data for all curves of one antibody were simultaneously fitted to a Bivalent analyte model (see FIG. 5). The equilibrium affinity was calculated from the on-rates and off-rates obtained from this analysis.

Row | Binder | binding result [1] | Kd (soluble P-selectin)
1 | humanized G1 antibody design labeled "aggressive" (G1aggr) (antibody, V domains shown, also called humanized G1aggr; humanized antibody G1aggr) VH: QVQLVQSGAEVKKPGASVKVSCKVSGYTFTSYDINWVRQAPGKGLEWMGWIYPGDGSIKYNEKFKGRVTMTVDKSTDTAYMELSSLRSEDTAVYYCARRGEYGNYEGAMDYWGQGTLVTVSS VL: DIQMTQSPSSLSASVGDRVTITCKASQSVDYDGHSYMNWYQQKPGKAPKLLIYAASNLESGVPSRFSGSGSGTDFTLTISSLQPEDFATYYCQQSDENPLTFGGGTKVEIK | no binding | 31.1 nM
2 | G1 mouse parental monoclonal antibody (antibody, V domains shown, Mouse monoclonal antibody from a hybridoma; also called murine mAb G1; parental G1 murine antibody) VH: QVQLQQSGPELVKPGALVKISCKASGYTFTSYDINWVKQRPGQGLEWIGWIYPGDGSIKYNEKFKGKATLTVDKSSSTAYMQVSSLTSENSAVYFCARRGEYGNYEGAMDYWGQGTTVTVSS VL: DIVLTQDPASLAVSLGQRATISCKASQSVDYDGHSYMNWYQQKPGQPPKLLIYAASNLESGIPARFSGSGSGTDFTLNIHPVEEEDAATYYCQQSDENPLTFGTGTKLELK | no binding | 24.4 nM

From patent US20110243926A1 (published 2011)
